Patent US20150344570A1 (published 2015)

T1: FcγRIIb extracellular domain with C-terminal His tag (human, UniProt P31994 43-217)
T1 construct: extracellular domain; Soluble receptor used as analyte in Biacore; also called FcgRIIb
T1 sequence (looked up): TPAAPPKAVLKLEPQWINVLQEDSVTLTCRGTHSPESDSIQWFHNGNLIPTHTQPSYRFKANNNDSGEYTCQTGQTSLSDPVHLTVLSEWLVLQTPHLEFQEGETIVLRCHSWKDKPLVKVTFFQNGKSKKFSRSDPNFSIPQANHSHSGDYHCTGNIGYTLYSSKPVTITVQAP

B1: GpH7-A5/GpH7-B3 variant H268_01G/GpL16-k0 (antibody, human IgG1, kappa)
heavy 1: not shown
heavy 2: not shown
light: DIVMTQSPLSLPVTPGEPASISCQASESLVHSNRNTYLHWYLQKPGQSPQLLIYKVSNRFSGVPDRFSGSGSGTDFTLKISRVEAEDVGVYYCSQNTHVPPTFGQGTKVEIERTVAAPSVFIFPPSDEQLKSGTASVVCLLNNFYPREAKVQWKVDNALQSGNSQESVTEQDSKDSTYSLSSTLTLSKADYEKHKVYACEVTHQGLSSPVTKSFNRGEC
notes: Heterodimerized IgG1, mutation in the GpH7-B3 chain only; also called He Ab
B2: GpH7-A5/GpH7-B3 variant H268_02A/GpL16-k0 (antibody, human IgG1, kappa)
heavy 1: not shown
heavy 2: not shown
light: B1 light
notes: as for B1
B3: GpH7-A5/GpH7-B3 variant H268_09D/GpL16-k0 (antibody, human IgG1, kappa)
heavy 1: not shown
heavy 2: not shown
light: B1 light
notes: as for B1
B4: GpH7-A5/GpH7-B3 variant H268_10E/GpL16-k0 (antibody, human IgG1, kappa)
heavy 1: not shown
heavy 2: not shown
light: B1 light
notes: as for B1
B5: GpH7-A5/GpH7-B3 variant H268_13S/GpL16-k0 (antibody, human IgG1, kappa)
heavy 1: not shown
heavy 2: not shown
light: B1 light
notes: as for B1
B6: GpH7-A5/GpH7-B3 variant H268_18N/GpL16-k0 (antibody, human IgG1, kappa)
heavy 1: not shown
heavy 2: not shown
light: B1 light
notes: as for B1
B7: GpH7-A5/GpH7-B3 variant K326_03V/GpL16-k0 (antibody, human IgG1, kappa)
heavy 1: not shown
heavy 2: not shown
light: B1 light
notes: as for B1
B8: GpH7-A5/GpH7-B3 variant K326_04F/GpL16-k0 (antibody, human IgG1, kappa)
heavy 1: not shown
heavy 2: not shown
light: B1 light
notes: as for B1
B9: GpH7-A5/GpH7-B3 variant K326_06M/GpL16-k0 (antibody, human IgG1, kappa)
heavy 1: not shown
heavy 2: not shown
light: B1 light
notes: as for B1
B10: GpH7-A5/GpH7-B3 variant K326_07I/GpL16-k0 (antibody, human IgG1, kappa)
heavy 1: not shown
heavy 2: not shown
light: B1 light
notes: as for B1
B11: GpH7-A5/GpH7-B3 variant K326_08L/GpL16-k0 (antibody, human IgG1, kappa)
heavy 1: not shown
heavy 2: not shown
light: B1 light
notes: as for B1
B12: GpH7-A5/GpH7-B3 variant K326_09D/GpL16-k0 (antibody, human IgG1, kappa)
heavy 1: not shown
heavy 2: not shown
light: B1 light
notes: as for B1
B13: GpH7-A5/GpH7-B3 variant K326_10E/GpL16-k0 (antibody, human IgG1, kappa)
heavy 1: not shown
heavy 2: not shown
light: B1 light
notes: as for B1
B14: GpH7-A5/GpH7-B3 variant K326_14T/GpL16-k0 (antibody, human IgG1, kappa)
heavy 1: not shown
heavy 2: not shown
light: B1 light
notes: as for B1
B15: GpH7-A5/GpH7-B3 variant K326_15Y/GpL16-k0 (antibody, human IgG1, kappa)
heavy 1: not shown
heavy 2: not shown
light: B1 light
notes: as for B1
B16: GpH7-A5/GpH7-B3 variant K326_19Q/GpL16-k0 (antibody, human IgG1, kappa)
heavy 1: not shown
heavy 2: not shown
light: B1 light
notes: as for B1
B17: GpH7-A5/GpH7-B3 variant K326_20W/GpL16-k0 (antibody, human IgG1, kappa)
heavy 1: not shown
heavy 2: not shown
light: B1 light
notes: as for B1
B18: GpH7-A5/GpH7-B3 variant P271_01G/GpL16-k0 (antibody, human IgG1, kappa)
heavy 1: not shown
heavy 2: not shown
light: B1 light
notes: as for B1
B19: GpH7-A5/GpH7-B3 variant S267_02A/GpL16-k0 (antibody, human IgG1, kappa)
heavy 1: not shown
heavy 2: not shown
light: B1 light
notes: as for B1
B20: GpH7-A5/GpH7-B3 variant S267_03V/GpL16-k0 (antibody, human IgG1, kappa)
heavy 1: not shown
heavy 2: not shown
light: B1 light
notes: as for B1
B21: GpH7-A5/GpH7-B3 variant S267_06M/GpL16-k0 (antibody, human IgG1, kappa)
heavy 1: not shown
heavy 2: not shown
light: B1 light
notes: as for B1
B22: GpH7-A5/GpH7-B3 variant S267_07I/GpL16-k0 (antibody, human IgG1, kappa)
heavy 1: not shown
heavy 2: not shown
light: B1 light
notes: as for B1
B23: GpH7-A5/GpH7-B3 variant S267_09D/GpL16-k0 (antibody, human IgG1, kappa)
heavy 1: not shown
heavy 2: not shown
light: B1 light
notes: as for B1
B24: GpH7-A5/GpH7-B3 variant S267_10E/GpL16-k0 (antibody, human IgG1, kappa)
heavy 1: not shown
heavy 2: not shown
light: B1 light
notes: as for B1
B25: GpH7-A5/GpH7-B3 variant S267_19Q/GpL16-k0 (antibody, human IgG1, kappa)
heavy 1: not shown
heavy 2: not shown
light: B1 light
notes: as for B1
B26: GpH7-A5/GpH7-B3 variant V266_07I/GpL16-k0 (antibody, human IgG1, kappa)
heavy 1: not shown
heavy 2: not shown
light: B1 light
notes: as for B1
B27: GpH7-A5/GpH7-B3 variant V266_08L/GpL16-k0 (antibody, human IgG1, kappa)
heavy 1: not shown
heavy 2: not shown
light: B1 light
notes: as for B1
B28: GpH7-A5/GpH7-B3 variant V266_12R/GpL16-k0 (antibody, human IgG1, kappa)
heavy 1: not shown
heavy 2: not shown
light: B1 light
notes: as for B1
B29: GpH7-A5/GpH7-B3 variant I332_02A/GpL16-k0 (antibody, human IgG1, kappa)
heavy 1: not shown
heavy 2: not shown
light: B1 light
notes: as for B1
B30: GpH7-A5/GpH7-B3 variant I332_04F/GpL16-k0 (antibody, human IgG1, kappa)
heavy 1: not shown
heavy 2: not shown
light: B1 light
notes: as for B1
B31: GpH7-A5/GpH7-B3 variant I332_06M/GpL16-k0 (antibody, human IgG1, kappa)
heavy 1: not shown
heavy 2: not shown
light: B1 light
notes: as for B1
B32: GpH7-A5/GpH7-B3 variant I332_14T/GpL16-k0 (antibody, human IgG1, kappa)
heavy 1: not shown
heavy 2: not shown
light: B1 light
notes: as for B1
B33: GpH7-A5/GpH7-B3 variant I332_15Y/GpL16-k0 (antibody, human IgG1, kappa)
heavy 1: not shown
heavy 2: not shown
light: B1 light
notes: as for B1

target: T2, FcγRIa extracellular domain with C-terminal His tag (human, UniProt P12314 16-292); test: SPR (Biacore), antibody captured, FcγR as analyte; binding relative to GpH7-A5/GpH7-B3/GpL16-k0 = 100
T2 construct: extracellular domain; Soluble receptor used as analyte in Biacore; also called FcgRI
T2 sequence (P12314 16-292): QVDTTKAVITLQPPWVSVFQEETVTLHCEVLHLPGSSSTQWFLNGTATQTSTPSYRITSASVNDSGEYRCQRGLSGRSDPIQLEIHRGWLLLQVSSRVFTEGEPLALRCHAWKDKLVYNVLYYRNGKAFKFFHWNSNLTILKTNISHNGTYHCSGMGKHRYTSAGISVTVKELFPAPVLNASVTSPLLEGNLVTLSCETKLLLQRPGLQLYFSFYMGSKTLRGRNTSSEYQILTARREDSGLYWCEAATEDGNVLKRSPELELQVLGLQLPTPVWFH

Going from B1 to B2, the He/Con_1a rises from 107 control = 100 to 109 control = 100.

Going from B3 to B4, the He/Con_1a rises from 110 control = 100 to 111 control = 100.

Going from B5 to B6, the He/Con_1a falls from 109 control = 100 to 108 control = 100.

B7 and B8 are the same in He/Con_1a: 102 control = 100 for the first, 102 control = 100 for the second.

Compared with B9, B10 is lower in He/Con_1a: 102 control = 100 for the first, 101 control = 100 for the second.

Going from B11 to B12, the He/Con_1a rises from 100 control = 100 to 103 control = 100.

B13 and B14 are the same in He/Con_1a: 104 control = 100 for the first, 104 control = 100 for the second.

Compared with B15, B16 is lower in He/Con_1a: 106 control = 100 for the first, 102 control = 100 for the second.

Going from B17 to B18, the He/Con_1a rises from 103 control = 100 to 105 control = 100.

First: B19
Second: B20
The He/Con_1a of the first is higher: 109 control = 100 for the first, 106 control = 100 for the second.

Going from B21 to B22, the He/Con_1a falls from 106 control = 100 to 100 control = 100.

Going from B23 to B24, the He/Con_1a falls from 110 control = 100 to 106 control = 100.

Going from B25 to B26, the He/Con_1a falls from 102 control = 100 to 99.3 control = 100.

First: B27
Second: B28
The He/Con_1a of the first is higher: 98.1 control = 100 for the first, 59.2 control = 100 for the second.

target: T1, FcγRIIb extracellular domain with …; test: as above

Compared with B1, B2 is higher in He/Con_2b: 144 control = 100 for the first, 167 control = 100 for the second.

Compared with B3, B4 is lower in He/Con_2b: 239 control = 100 for the first, 230 control = 100 for the second.

Going from B5 to B6, the He/Con_2b falls from 160 control = 100 to 156 control = 100.

Compared with B7, B8 is lower in He/Con_2b: 175 control = 100 for the first, 155 control = 100 for the second.

First: B9
Second: B10
The He/Con_2b of the first is lower: 165 control = 100 for the first, 199 control = 100 for the second.

First: B11
Second: B12
The He/Con_2b of the first is lower: 177 control = 100 for the first, 193 control = 100 for the second.

First: B13
Second: B14
The He/Con_2b of the first is higher: 200 control = 100 for the first, 150 control = 100 for the second.

Going from B15 to B16, the He/Con_2b falls from 159 control = 100 to 139 control = 100.

Going from B17 to B18, the He/Con_2b rises from 148 control = 100 to 193 control = 100.

Compared with B19, B20 is lower in He/Con_2b: 243 control = 100 for the first, 192 control = 100 for the second.

Compared with B21, B22 is lower in He/Con_2b: 210 control = 100 for the first, 192 control = 100 for the second.

First: B23
Second: B24
The He/Con_2b of the first is lower: 310 control = 100 for the first, 379 control = 100 for the second.

Going from B25 to B26, the He/Con_2b falls from 218 control = 100 to 152 control = 100.

First: B27
Second: B28
The He/Con_2b of the first is higher: 236 control = 100 for the first, -1.1 control = 100 for the second.

target: T2, FcγRIa extracellular domain with …; test: as above; remark: another data set of the same source

First: B29
Second: B30
The He/Con_1a of the first is lower: 88.3 control = 100 for the first, 93.6 control = 100 for the second.

First: B31
Second: B32
The He/Con_1a of the first is higher: 92.3 control = 100 for the first, 91.8 control = 100 for the second.

Work on B33 yielded a He/Con_1a of 88.8 control = 100.

target: T1, FcγRIIb extracellular domain with …; test: as above; remark: another data set of the same source

Going from B29 to B30, the He/Con_2b rises from 103 control = 100 to 104 control = 100.

Compared with B31, B32 is higher in He/Con_2b: 105 control = 100 for the first, 106 control = 100 for the second.

B33 gave a He/Con_2b of 101 control = 100.

target: T2, FcγRIa extracellular domain with …; test: ratio He/Con_1a : He/Con_2b (FcγRIa over FcγRIIb), SPR (Biacore)

First: B1
Second: B2
The “He_1a/2b (Ia/IIb)” value of the first is higher: 0.75 for the first, 0.65 for the second.

Compared with B3, B4 is higher in “He_1a/2b (Ia/IIb)” value: 0.46 for the first, 0.48 for the second.

First: B5
Second: B6
The “He_1a/2b (Ia/IIb)” value of the first is lower: 0.68 for the first, 0.69 for the second.

First: B7
Second: B8
The “He_1a/2b (Ia/IIb)” value of the first is lower: 0.58 for the first, 0.66 for the second.

First: B9
Second: B10
The “He_1a/2b (Ia/IIb)” value of the first is higher: 0.62 for the first, 0.51 for the second.

Compared with B11, B12 is lower in “He_1a/2b (Ia/IIb)” value: 0.57 for the first, 0.54 for the second.

First: B13
Second: B14
The “He_1a/2b (Ia/IIb)” value of the first is lower: 0.52 for the first, 0.7 for the second.

First: B15
Second: B16
The “He_1a/2b (Ia/IIb)” value of the first is lower: 0.66 for the first, 0.73 for the second.

Going from B17 to B18, the “He_1a/2b (Ia/IIb)” value falls from 0.69 to 0.54.

Compared with B19, B20 is higher in “He_1a/2b (Ia/IIb)” value: 0.45 for the first, 0.55 for the second.

First: B21
Second: B22
The “He_1a/2b (Ia/IIb)” value of the first is lower: 0.51 for the first, 0.52 for the second.

Compared with B23, B24 is lower in “He_1a/2b (Ia/IIb)” value: 0.35 for the first, 0.28 for the second.

Going from B25 to B26, the “He_1a/2b (Ia/IIb)” value rises from 0.47 to 0.65.

First: B27
Second: B28
The “He_1a/2b (Ia/IIb)” value of the first is higher: 0.42 for the first, -55.6 for the second.
